Reference: patent US20230035859A1, “COMPOSITIONS AND METHODS FOR EPITOPE SCANNING” (priority 2019, published 2023)

Assays:
HLA-A*02:01 [1] = target: T1, HLA-A*02:01 (Homo sapiens, UniProt P04439, D140Y/D185E/D98H/E176V/E277Q/G131W/G231S/I119V/I121R/I166T/I218V/L300P/L318F/N151K/N90K/P208A/P217A/Q86G/Q94H/R138H/R169H/T345S); assay type: cell-based
HLA-A*02:01 [2] = target: T1, HLA-A*02:01; assay: QuickSwitch Quant HLA-A*02:01 Tetramer control peptide exchange
CD8+ T cells = assay type: cell-based, human; parameters: key: y = yes; TBD = to be determined
HLA-B*57:01 = HLA-B*57:01 (Homo sapiens, UniProt P01889, D201E/D98Y/E176V/E187L/E204Q/E69M/E70A/G107R/I90N/K202T/L105A/L119I/N104I/N87E/Q89R/Q94S/R106L/R155S/R180L/R86G/S101N/S121V/S35A/S48A/T118I/V36M/Y140S/Y91M); assay: Random 9-mer EpiScan screen in HLA-B57-expressing EpiScan cells with and without abacavir; assay type: cell-based; details: 48 h abacavir treatment at 6 μM
[3] = cited from earlier work

For TLATHGLAAV, the “EpiScan MFI” value (HLA-A*02:01 [1]) was 4.040 and the “% Peptide Exchange” value (HLA-A*02:01 [2]) was 97.98%.
For VMAYITGGV, the “EpiScan MFI” value (HLA-A*02:01 [1]) was 4.528 and the “% Peptide Exchange” value (HLA-A*02:01 [2]) was 99.07%.
For AMDEFIERYKL, the “EpiScan MFI” value (HLA-A*02:01 [1]) was 2.352 and the “% Peptide Exchange” value (HLA-A*02:01 [2]) was 96.89%.
With VMVELVAEL the “EpiScan MFI” value (HLA-A*02:01 [1]) was 5.338, the “Patient tetramer positivity?” value (CD8+ T cells) was “y” and the “% Peptide Exchange” value (HLA-A*02:01 [2]) was 98.63%.
With Nc1nc(NC2CC2)c2ncn([C@H]3C=C[C@@H](CO)C3)c2n1 [Abacavir] the “binding peptides with C-terminal Residue C, Abacavir treated” value (HLA-B*57:01) was 3, the “binding peptides with C-terminal Residue F, Abacavir treated” value (HLA-B*57:01) was 66 and the “binding peptides with C-terminal Residue G, Abacavir treated” value (HLA-B*57:01) was 4. For the same compound, the “binding peptides with C-terminal Residue I, Abacavir treated” value (HLA-B*57:01) was 59, the “binding peptides with C-terminal Residue L, Abacavir treated” value (HLA-B*57:01) was 10 and the “binding peptides with C-terminal Residue M, Abacavir treated” value (HLA-B*57:01) was 5. The “binding peptides with C-terminal Residue N, Abacavir treated” value (HLA-B*57:01) was 1, the “binding peptides with C-terminal Residue R, Abacavir treated” value (HLA-B*57:01) was 3 and the “binding peptides with C-terminal Residue V, Abacavir treated” value (HLA-B*57:01) was 28. For the same compound, the “binding peptides with C-terminal Residue W, Abacavir treated” value (HLA-B*57:01) was 502, the “binding peptides with C-terminal Residue Y, Abacavir treated” value (HLA-B*57:01) was 22 and the “hypersensitivity, share of patients” value [3] was “around 5%”.
For YIDIGNYTV, the “EpiScan MFI” value (HLA-A*02:01 [1]) was 4.421 and the “% Peptide Exchange” value (HLA-A*02:01 [2]) was 97.94%.
With VLYQDVNCTEV the “EpiScan MFI” value (HLA-A*02:01 [1]) was 5.598 and the “% Peptide Exchange” value (HLA-A*02:01 [2]) was 97.92%.
With VMAYITGGVV the “EpiScan MFI” value (HLA-A*02:01 [1]) was 4.641, the “Patient tetramer positivity?” value (CD8+ T cells) was “y” and the “% Peptide Exchange” value (HLA-A*02:01 [2]) was 99.07%.
For SLPGVFCGV, the “EpiScan MFI” value (HLA-A*02:01 [1]) was 6.418, the “Patient tetramer positivity?” value (CD8+ T cells) was “y” and the “% Peptide Exchange” value (HLA-A*02:01 [2]) was 98.00%.
